According to patent publication US20120003684A1, “Method and Means for Detecting the Activity of Osteoclasts” (TECHNISCHE UNIVERSITAET DRESDEN, priority 2009, published 2012):

B1: interferon-y: inhibitor of osteoclast activity (protein, UniProt P01579 24-161, looked up)
Interferon gamma: QDPYVKEAENLKKYFNAGHSDVADNGTLFLGILKNWKEESDRKIMQSQIVSFYFKLFKNFKDDQSIQKSVETIKEDMNVKFFNSNKKKRDDFEKLTNYSVTDLNVQRKAIHELIQVMAELSPAAKTGKRKRSQMLFRG
B2: MCSF: macrophage colony-stimulating factor, cytokine added for osteoclast differentiation (protein, UniProt P09603 33-554, looked up)
Macrophage colony-stimulating …: EEVSEYCSHMIGSGHLQSLQRLIDSQMETSCQITFEFVDQEQLKDPVCYLKKAFLLVQDIMEDTMRFRDNTPNAIAIVQLQELSLRLKSCFTKDYEEHDKACVRTFYETPLQLLEKVKNVFNETKNLLDKDWNIFSKNCNNSFAECSSQDVVTKPDCNCLYPKAIPSSDPASVSPHQPLAPSMAPVAGLTWEDSEGTEGSSLLPGEQPLHTVDPGSAKQRPPRSTCQSFEPPETPVVKDSTIGGSPQPRPSVGAFNPGMEDILDSAMGTNWVPEEASGEASEIPVPQGTELSPSRPGGGSMQTEPARPSNFLSASSPLPASAKGQQPADVTGTALPRVGPVRPTGQDWNHTPQKTDHPSALLRDPPEPGSPRISSLRPQGLSNPSTLSAQPQLSRSHSSGSVLPLGELEGRRSTRDRRSPAEPEGGPASEGAARPLPRFNSVPLTDTGHERQSEGSFSPQLQESVFHLLVPSVILVLLAVGGLLFYRWRRRSHQEPQRADSPLEQPEGSPLTQDDRQVELPV

Key:
[1] = test system: osteoclasts differentiated by RANKL from mouse osteoclast precursor cell line RAW 264.7; assay: osteoclast resorption assay on bio-mineralized matrix, inhibition study (FIG. 4); assay type: cell-based; conditions: RAW 264.7 differentiated by RANKL addition (40 ng/ml)
Description: Moreover, particularly in medical research the examination of inhibiting materials or activators of osteoclast activity is especially of interest. As an example, in FIG. 4 it is shown that the osteoclast activity depends on the inhibitor interferon-y. The osteoclasts were differentiated by RANKL addition (40 ng/ml)) from a mouse osteoclast precursor cell line (RAW 264.7). […] Accordingly, the invention can also be utilized for inhibition studies in relation to osteoclast resorption activity.
For the synthesis of a bone-like physiological matrix, the human osteoblast precursor cell line SAOS-2 (DSMZ ACC 243, DSMZ, Braunschweig) is used in this embodiment. The cells are seeded on cell culturing plates. The differentiation of the cells is realized by addition of ascorbate (300 μmol/l) and β-glycerophosphate (10 mmol/l) to the medium (alpha MEM, Biochrom, 10% FCS). […]
(§1) The resorption assay is based on the combination of two methods with each other. […] For determining the resorption surface area the dried plates were subsequently scanned by a transmitted light scanner and evaluated e.g. by means of Image Quant. In this connection, the scanned surface area was determined and white surfaces differentiated from black surfaces. The volume of the white surface area can then be calculated by means of the calibration line (see FIG. 2) into the actual resorted surface area.

[2] = test system: primary mouse osteoclast precursor cells (primary mouse bone marrow monocytes); assay: osteoclast resorption assay on bio-mineralized matrix, MCSF dependency (FIG. 1); assay type: cell-based; conditions: RANKL (40 ng/ml) present, as a function of MCSF concentration
Excerpt: The sequence is divided into two phases. In phase I, the matrix synthesis with osteoblasts occurs; the latter, after production of the matrix (approximately 25 days), are removed from the matrix. The subsequent phase II encompasses the use of the matrix for the osteoclast resorption assay. In this connection, the method in this example was employed in order to examine the resorption activity of primary mouse osteoclast precursor cells (primary mouse bone marrow monocytes) as a function of the concentration of MCSF (macrophage colony-stimulating factor).
For the synthesis of a bone-like physiological matrix, the human osteoblast precursor cell line SAOS-2 (DSMZ ACC 243, DSMZ, Braunschweig) is used in this embodiment. The cells are seeded on cell culturing plates. […]
as §1

| Molecule | osteoclast activity (resorption activity) [1] | resorption activity of the differentiated osteoclasts [2] |
| --- | --- | --- |
| B1 | concentration-dependent inhibition |  |
| B2 |  | depends on the quantity of added MCSF |
